T1: UHRF1 TTD-PHD (deletion 167-175) (human, UniProt Q96T88 134-366, deletion 167-175)
T1 sequence (looked up): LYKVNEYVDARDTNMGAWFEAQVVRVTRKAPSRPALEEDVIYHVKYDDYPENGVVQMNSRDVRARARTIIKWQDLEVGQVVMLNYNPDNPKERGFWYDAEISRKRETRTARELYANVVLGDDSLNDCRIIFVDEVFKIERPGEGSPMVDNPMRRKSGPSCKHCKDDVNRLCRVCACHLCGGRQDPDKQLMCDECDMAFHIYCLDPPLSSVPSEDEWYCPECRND

B1: mSTE-1 (peptide of the mSTELLA Swap1 region, residues 80-119) (peptide, UniProt Q8QZY3 80-119, looked up)
peptide: QSAFPKRRVRTLLSVLKDPIAKMRRLVRIEQRQKRLEGNE
B2: hSTE-1 (peptide of the hSTELLA Swap1 region, residues 75-121) (peptide, UniProt Q6W0C5 75-121, looked up)
peptide: EDEWLYSRRGVRTLLSVQREKMARLRYMLLGGVRTHERRPTNKEPKG
B3: UHRF1 PHD domain (298-367) (domain or fragment, human, UniProt Q96T88 298-367, looked up)
chain: SGPSCKHCKDDVNRLCRVCACHLCGGRQDPDKQLMCDECDMAFHIYCLDPPLSSVPSEDEWYCPECRNDA
B4: UHRF1 TTD-PHD (134-366) (domain or fragment, human, UniProt Q96T88 134-366, looked up)
chain: LYKVNEYVDARDTNMGAWFEAQVVRVTRKAPSRDEPCSSTSRPALEEDVIYHVKYDDYPENGVVQMNSRDVRARARTIIKWQDLEVGQVVMLNYNPDNPKERGFWYDAEISRKRETRTARELYANVVLGDDSLNDCRIIFVDEVFKIERPGEGSPMVDNPMRRKSGPSCKHCKDDVNRLCRVCACHLCGGRQDPDKQLMCDECDMAFHIYCLDPPLSSVPSEDEWYCPECRND

Legend:
[1] = biological target: B4; experiment: ITC
[2] = biological target: B3; experiment: ITC
[3] = biological target: T1, UHRF1 TTD-PHD (deletion 167-175); experiment: crystal structure
[4] = biological target: B2; experiment: ITC
[5] = biological target: B1; experiment: ITC

With B1 the Kd [1] was 5.84 nM and the Kd [2] was 91.2 nM.

KRRVRTLLSVLKDPIAKMRRLVRIEQRQKRLEGNE (peptide, UniProt Q8QZY3 85-119, looked up) [mSTE-2 (truncated peptide within mSTE-1, residue 85-119)]: binds [3]; binds [2].

B2 was tested, and the binding result [3] was “binds”, the Kd [1] was 786 nM and the Kd [2] was 818 nM.

With B3 the “stoichiometry N” value [4] was 1 and the “stoichiometry N” value [5] was 1.

With B4 the “fold weaker affinity than the H3K9me3 tail” value [4] was 4 fold and the “fold more potent affinity than the H3K9me3 tail” value [5] was greater than 30 fold.

— article PMC11707192 (Nature Communications, 2025)
